Source: patent US20210101998A1 (Pfizer, published 2021)
Like-named read-outs stand apart in the source and are kept apart here.

Assays:
[1] = molecular target: humTFPI K1K2 (human); experiment: cell-based or functional assay
[2] = molecular target: T1, humTFPI K1K2 (human); experiment: SPR, antibody ligand, TFPI analyte
T1 construct: Biotinylated on the AviTag for ELISA; also called Human TFPIα K1K2; humTFPI K1K2-aviHis10

[3] = molecular target: T2, murTFPI K1K2 (mouse); experiment: SPR, antibody ligand, TFPI analyte
T2 construct: also called Mouse TFPI K1K2; mouse TFPI
T2 chain: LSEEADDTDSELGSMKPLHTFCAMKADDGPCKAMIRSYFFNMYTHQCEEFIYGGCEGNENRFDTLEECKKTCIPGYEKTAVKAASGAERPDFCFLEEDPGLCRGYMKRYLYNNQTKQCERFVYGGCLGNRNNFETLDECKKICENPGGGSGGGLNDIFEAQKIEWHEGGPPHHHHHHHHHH

[4] = molecular target: T1, humTFPI K1K2; experiment: SPR, antibody ligand, TFPI analyte; remark: listed apart in the source
Experimental: (§1) The flow cells were activated by injecting a 1:1 mixture of 400 mM 1-Ethyl-3-(3-dimethylaminopropyl) carbodiimide hydrochloride (EDC) and N-hydroxysuccinimide (NHS) for 7 minutes at a flow rate of 10 μl/minute. Anti-human IgG antibody was diluted to 25 μg/ml in 10 mM Sodium Acetate pH 5.0 and injected over all flow cells for 7 minutes at 10 ul/minute. All flow cells were blocked with 1 M Ethanolamine-HCL (ETH) for 7 minutes at 10 μl/minute. Final immobilization level of the capture antibody was approximately 10,000 resonance units (RU). The running buffer for immobilization and kinetics was 10 mM HEPES pH 7.4, 150 mM NaCl, 3 mM EDTA, 0.05% (v/v) Tween-20 (HBS-EP+). […] Flow cell 1 was used as a reference surface. […] At the end of each cycle, the entire anti-IgG surface was regenerated by a 60 second pulse of 3 M MgCl2. Kinetic assays were conducted at 25° C. at a collection rate of 10 Hz on a BIAcore T200 instrument (GE Healthcare). Rate constants and affinities were determined by fitting the data to a 1:1 model in BIAcore T200 Evaluation software version 1.0 (GE).

[5] = molecular target: humTFPI K1K2K3 (human); experiment: cell-based or functional assay
[6] = molecular target: T1, humTFPI K1K2; experiment: cell-based or functional assay; remark: listed apart in the source
[7] = molecular target: T3, rabTFPI K1K2 (rabbit, limits assumed); experiment: SPR, summary table
T3 construct: also called Rabbit TFPI K1K2; rabbit TFPI
T3 chain: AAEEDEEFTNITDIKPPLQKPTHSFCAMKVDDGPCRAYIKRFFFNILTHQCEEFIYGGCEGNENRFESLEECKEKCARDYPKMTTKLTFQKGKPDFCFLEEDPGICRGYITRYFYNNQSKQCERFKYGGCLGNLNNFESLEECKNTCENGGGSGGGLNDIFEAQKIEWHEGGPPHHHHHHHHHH
Experimental: as §1

[8] = molecular target: T4, ratTFPI K1K2 (rat); experiment: SPR, summary table
T4 chain: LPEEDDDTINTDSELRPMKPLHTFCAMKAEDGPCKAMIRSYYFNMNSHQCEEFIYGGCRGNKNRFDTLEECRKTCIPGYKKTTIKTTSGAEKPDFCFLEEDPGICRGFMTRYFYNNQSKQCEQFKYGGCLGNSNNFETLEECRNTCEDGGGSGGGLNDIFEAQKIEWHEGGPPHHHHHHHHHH
Experimental: as §1

[9] = molecular target: T3, rabTFPI K1K2; experiment: SPR, antibody ligand, TFPI analyte
Experimental: as §1

[10] = molecular target: T4, ratTFPI K1K2; experiment: SPR, antibody ligand, TFPI analyte;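 note: surface plasmon resonance on a BIAcore T200 at 25 °C, test antibody captured on immobilized anti-human IgG, TFPI K1K2 flowed as analyte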
Experimental: as §1

[11] = molecular target: T5, cynTFPI K1K2 (cynomolgus monkey); experiment: SPR, summary table
T5 construct: also called Cynomolgus Monkey TFPI K1K2; cyno TFPI K1K2
Experimental: as §1

[12] = molecular target: T1, humTFPI K1K2; experiment: SPR, summary table
Experimental: as §1

[13] = molecular target: T2, murTFPI K1K2; experiment: SPR, summary table
Experimental: as §1

[14] = molecular target: T5, cynTFPI K1K2; experiment: SPR, antibody ligand, TFPI analyte;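 note: surface plasmon resonance on a BIAcore T200 at 25 °C, test antibody captured on immobilized anti-human IgG, TFPI K1K2 flowed as analyte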
Experimental: as §1

[15] = molecular target: T1, humTFPI K1K2; experiment: SPR, antibody ligand, TFPI analyte; remark: listed apart in the source
Experimental: as §1

[16] = molecular target: T3, rabTFPI K1K2; experiment: SPR, antibody ligand, TFPI analyte
Experimental: as §1

[17] = molecular target: T1, humTFPI K1K2; experiment: SPR, antibody ligand, TFPI analyte; remark: listed apart in the source
Experimental: as §1

[18] = molecular target: T3, rabTFPI K1K2; experiment: ELISA, biotinylated TFPI on streptavidin plate
[19] = molecular target: T1, humTFPI K1K2; experiment: ELISA, biotinylated TFPI on streptavidin plate

B1: TFPI-23 (antibody, human IgG1, lambda)
light: QSVLTQPPSVSGAPGQRVTISCTGSSSNIGAGYDVHWYQQLPGTAPKLLIYGNSNRPSGVPDRFSGSKSGTSASLAITGLQAEDEADYYCQSYDSSLSGSGVFGGGTKLTVLGQPKAAPSVTLFPPSSEELQANKATLVCLISDFYPGAVTVAWKADSSPVKAGVETTTPSKQSNNKYAASSYLSLTPEQWKSHRSYSCQVTHEGSTVEKTVAPTECS
heavy: not shown
notes: Human IgG1-3M from phage display; also called mAb-TFPI-23; clone 23
**Q.** Which “FXa EC50” value [1] does the source give for B1 here?
**A.** 46 nM

**Q.** And the “FXa-FVIIa EC50” value [1]?
**A.** 32.2 nM

**Q.** What about the Kd [2] of the same binder?
**A.** 9.89 nM

**Q.** And the Kd [3]?
**A.** 1.46 nM

**Q.** What about the Kd [4] of the same binder?
**A.** 9.89 nM

B2: TFPI-106 (antibody, human IgG1, lambda)
light: B1 light
heavy: not shown
**Q.** Which “EC50, neutralization of FVIIa/TF/FXa inhibition” value [5] does the source give for B2 here?
**A.** 8.47 nM

**Q.** What about the “FVIIa/TF/Xa EC50” value [6] of the same binder?
**A.** 4.3 nM

**Q.** What about the “Xa Inhibition Assay EC50” value [6] of the same binder?
**A.** 18.1 nM

**Q.** And the Kd [7]?
**A.** 4.25 nM

**Q.** What about the Kd [8] of the same binder?
**A.** 1.57 nM

**Q.** And the Kd [9]?
**A.** 4.25 nM

**Q.** What about the Kd [10] of the same binder?
**A.** 1.57 nM

B3: hz4F36 (antibody, human IgG4 S228P, kappa, V domains shown)
VH: EVQLVESGGGLVKPGGSLRLSCAASGFTFSNYAMSWVRQTPEKRLEWVATISRSGSYSYFPDSVQGRFTISRDNAKNSLYLQMNSLRAEDTAVYYCARLGGYDEGDAMDSWGQGTTVTVSS
VL: DIVMTQTPLSLSVTPGQPASISCKSSQSLLESDGKTYLNWYLQKPGQSPQLLIYLVSILDSGVPDRFSGSGSGTDFTLKISRVEAEDVGVYYCLQATHFPQTFGGGTKVEIKR
notes: also called Novo2021; Anti-TFPI-4F36
**Q.** For B3, which “FVIIa/TF/Xa EC50” value [6] is on record?
**A.** 1.85 nM

**Q.** What about the “Xa Inhibition Assay EC50” value [6] of the same binder?
**A.** 6.57 nM

**Q.** And the Kd [7]?
**A.** 1.81 nM

**Q.** What about the Kd [11] of the same binder?
**A.** 0.425 nM

**Q.** And the Kd [12]?
**A.** 0.493 nM

**Q.** Does B3 bind [13]?
**A.** no binding

**Q.** And the Kd [9]?
**A.** 1.81 nM

**Q.** And the koff [9]?
**A.** 0.0076 s⁻¹

**Q.** And the kon [9]?
**A.** 4.2e+06 M⁻¹ s⁻¹

**Q.** What about the Kd [14] of the same binder?
**A.** 0.425 nM

**Q.** What about the koff [14] of the same binder?
**A.** 0.00288 s⁻¹

**Q.** And the kon [14]?
**A.** 6.86e+06 M⁻¹ s⁻¹

**Q.** Does B3 bind [10]?
**A.** no binding

**Q.** What about the Kd [15] of the same binder?
**A.** 0.49 nM

**Q.** And the koff [15]?
**A.** 0.00093 s⁻¹

**Q.** And the kon [15]?
**A.** 1.89e+06 M⁻¹ s⁻¹

B4: mu-hu 4D8 chimera (antibody, human IgG1, kappa)
light: DIVMTQSHKFMSTSVGDRVSITCKASQDVHTAVAWYQQKPGQSPRLLIYWASTRHTGVPDRFTGCGSGTDYTLTISSVQAEDLALYYCQQHYTTPYTFGGGTKLEMKRTVAAPSVFIFPPSDEQLKSGTASVVCLLNNFYPREAKVQWKVDNALQSGNSQESVTEQDSKDSTYSLSSTLTLSKADYEKHKVYACEVTHQGLSSPVTKSFNRGEC
heavy: EVLLQQSGPELVKPGASVKIPCKASGYTFTDYNLDWVKQSHGKSLEWIGDINPINGATLYNQKFKGKATLTVDQSSSTAYMELRSLTSEDTAVYYCSIYYGDYDAMDYWGQGASVTVSSASTKGPSVFPLAPSSKSTSGGTAALGCLVKDYFPEPVTVSWNSGALTSGVHTFPAVLQSSGLYSLSSVVTVPSSSLGTQTYICNVNHKPSNTKVDKKVEPKSCDKTHTCPPCPAPEAAGAPSVFLFPPKPKDTLMISRTPEVTCVVVDVSHEDPEVKFNWYVDGVEVHNAKTKPREEQYNSTYRVVSVLTVLHQDWLNGKEYKCKVSNKALPAPIEKTISKAKGQPREPQVYTLPPSREEMTKNQVSLTCLVKGFYPSDIAVEWESNGQPENNYKTTPPVLDSDGSFFLYSKLTVDKSRWQQGNVFSCSVMHEALHNHYTQKSLSLSPG
notes: Mouse variable regions on human IgG1 3M and human kappa; also called hu-mu 4D8 chimera; mouse-human chimeric antibody 4D8
**Q.** What does the source list for B4?
**A.** Kd [16]: 0.63 nM; koff [16]: 0.00126 s⁻¹; kon [16]: 2.01e+06 M⁻¹ s⁻¹; Kd [17]: 1.19 nM; koff [17]: 0.00114 s⁻¹; kon [17]: 958000 M⁻¹ s⁻¹; EC50 [18]: 0.068 nM; EC50 [19]: 0.0577 nM
